Measurements published in US20260226095A1.

Assays:
[1] = target: human recombinant TNFα (human) (UniProt P01375); experiment: ELISA on human recombinant TNFα, anti-His tag and HRP anti-mouse IgG
[2] = target: human recombinant TNFα (human) (UniProt P01375); experiment: SPR, Biacore T200, standard kinetics, antigen immobilized on CM5 chip

Chain of human recombinant TNFα (human) (P01375 77-233 limits assumed): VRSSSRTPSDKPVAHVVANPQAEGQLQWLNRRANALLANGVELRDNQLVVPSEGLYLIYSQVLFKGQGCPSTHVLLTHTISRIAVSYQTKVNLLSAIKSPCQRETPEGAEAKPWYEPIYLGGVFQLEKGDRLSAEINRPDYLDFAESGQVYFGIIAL

| Substance | EC50 (read off the curve) [1] [µg/mL] | Kd [2] [nM] | RUmax [2] [RU] |
| --- | --- | --- | --- |
| scFv Ab3 (Adalimumab) of synthesis | 0.09 | 4.3 | 12 |
| scFv Ab3 RREF | – | 9.3 | – |
